This note sets out measurements from PMC11973430, “Rubisco packaging and stoichiometric composition of the native β-carboxysome in Synechococcus elongatus PCC7942” (Plant Physiology, 2024).

For this test, the target named is T1, Rubisco L8S8 hexadecamer (Form IB ribulose-1,5-bisphosphate carboxylase/oxygenase) of Synechococcus elongatus … (Synechococcus elongatus PCC7942 …, UniProt Q31NB3 1-472; Q31NB2 1-111).
T1 construct: Rubisco large subunit RbcL, Synechococcus elongatus PCC7942, GenBank ABB57456.1; 52.4 kDa; Rubisco small subunit RbcS, Synechococcus elongatus PCC7942, GenBank ABB57457.1; 13.3 kDa; Native holoenzyme imaged inside isolated β-carboxysomes; not separated from the other carboxysome proteins; also called Rubisco complex; Form IB Rubisco; source: endogenous, inside β-carboxysomes purified from Syn7942 …
T1 sequence (Q31NB2 whole entry, chain 2 of 2, other chains not shown): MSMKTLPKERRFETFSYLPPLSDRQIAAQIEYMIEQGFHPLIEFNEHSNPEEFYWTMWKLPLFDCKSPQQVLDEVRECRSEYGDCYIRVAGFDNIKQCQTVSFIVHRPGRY
The test can be described thus: cryo-EM structure; cryoET and subtomogram averaging (emClarity, D4 symmetry) of Rubisco inside isolated native Syn7942 β-carboxysomes (185 carboxysomes) in TEMB buffer (10 mM Tris-HCl pH 8.0, 1 mM EDTA, 10 mM MgCl2, 20 mM NaHCO3); 3.5 Å. Particulars: partners not purified.

B1: Carboxysome scaffolding (linker) protein CcmM of Synechococcus elongatus PCC7942 (natural protein, UniProt Q03513-2 1-324, looked up)
chain: MSAYNGQGRLSSEVITQVRSLLNQGYRIGTEHADKRRFRTSSWQPCAPIQSTNERQVLSELENCLSEHEGEYVRLLGIDTNTRSRVFEALIQRPDGSVPESLGSQPVAVASGGGRQSSYASVSGNLSAEVVNKVRNLLAQGYRIGTEHADKRRFRTSSWQSCAPIQSSNERQVLAELENCLSEHEGEYVRLLGIDTASRSRVFEALIQDPQGPVGSAKAAAAPVSSATPSSHSYTSNGSSSSDVAGQVRGLLAQGYRISAEVADKRRFQTSSWQSLPALSGQSEATVLPALESILQEHKGKYVRLIGIDPAARRRVAELLIQKP
notes: CcmM, Synechococcus elongatus PCC7942, GenBank AAA27306.1; present in the native β-carboxysome as two isoforms, the full-length 58-kDa CcmM58 and the 35-kDa truncated CcmM35 (three SSUL domains each); Mixture of CcmM35 and CcmM58 in the native carboxysome; also called CcmM35; CcmM58; source: endogenous, inside β-carboxysomes purified from Syn7942 (sucrose gradient ultracentrifugation)
For the molecule B1, the “stoichiometry N” value was 4 CcmM SSUL domains per Rubisco L8S8.
